{
  "source": "FireProtDB (doi:10.1021/bi034798l)",
  "parents": {"B1": {"name": "SH2 domain-containing protein 1A, O60880 (parent)", "chain": "MDAVAVYHGKISRETGEKLLLATGLDGSYLLRDSESVPGVYCLCVLYHGYIYTYRVSQTETGSWSAETAPGVHKRYFRKIKNLISAFQKPDQGIVIPLQYPVEKKSSARSTQGTTGIREDPDVCLKAP"}},
  "variants_of": "B1",
  "details": "Homo sapiens; pH 7.4; Thermal; CD; Phosphate buffer saline; structure 1KA6; whole UniProt chain shown",
  "data": [
    {"variant": "MDAVAVYHGKISRETGEKLLLATGLDGSYLLRDSESVPGVYCLCVLYHGYIYTYRVSQTETGSWSADTAPGVHKRYFRKIKNLISAFQKPDQGIVIPLQYPVEKKSSARSTQGTTGIREDPDVCLKAP", "note": "[E67D]", "values": [
      {"measurement": "Tm", "result": 44.2, "unit": "°C"},
      {"measurement": "change of melting temperature, mutant - wild type (higher = more stable)", "result": -13.6, "unit": "°C"}
    ]},
    {"variant": "MDAVAVYHGKISRETGEKLLLATGLDGSYLPRDSESVPGVYCLCVLYHGYIYTYRVSQTETGSWSAETAPGVHKRYFRKIKNLISAFQKPDQGIVIPLQYPVEKKSSARSTQGTTGIREDPDVCLKAP", "note": "[L31P]", "values": [
      {"measurement": "Tm", "result": 45.6, "unit": "°C"},
      {"measurement": "change of melting temperature, mutant - wild type (higher = more stable)", "result": -12.2, "unit": "°C"}
    ]},
    {"variant": "MDAVAVYHGKISRETGEKLLLATGLDGSYLLRDSESVPGVYCLCVLYHGYIYTYRVSQTETGSWSAETAPGVHKRYFRKIKNLISASQKPDQGIVIPLQYPVEKKSSARSTQGTTGIREDPDVCLKAP", "note": "[F87S]", "values": [
      {"measurement": "Tm", "result": 50.5, "unit": "°C"},
      {"measurement": "change of melting temperature, mutant - wild type (higher = more stable)", "result": -7.3, "unit": "°C"}
    ]},
    {"variant": "MDAVAVYHGKISRETGEKLLLATGLDGSYLLRDSESVPGVYCLCVLYHGYIYTCRVSQTETGSWSAETAPGVHKRYFRKIKNLISAFQKPDQGIVIPLQYPVEKKSSARSTQGTTGIREDPDVCLKAP", "note": "[Y54C]", "values": [
      {"measurement": "Tm", "result": 48.2, "unit": "°C"},
      {"measurement": "change of melting temperature, mutant - wild type (higher = more stable)", "result": -9.6, "unit": "°C"}
    ]},
    {"variant": "MDAVAVYHGKISRETGEKLLLATGLDGSYLLRDSESVPGVYCLCVLYHGYIYTYRVSQTETGSWSAETAPGVHKRYFRKIKNLISAFQKPDQDIVIPLQYPVEKKSSARSTQGTTGIREDPDVCLKAP", "note": "[G93D]", "values": [
      {"measurement": "Tm", "result": 49.1, "unit": "°C"},
      {"measurement": "change of melting temperature, mutant - wild type (higher = more stable)", "result": -8.7, "unit": "°C"}
    ]}
  ]
}
